Experiments:
Test in all cases: holdup assay
Set-up in all cases: key: below the threshold = too weak to quantify, mostly under pKd 3.1 to 4
Details in all cases: plain residues with an end cap or a label only (N-terminal biotin on a linker: ado-ado)
ARHGAP21, Q5T5U3 = biological target: T1, ARHGAP21, Q5T5U3
T1 sequence (Q5T5U3 45-169, limits assumed, looked up): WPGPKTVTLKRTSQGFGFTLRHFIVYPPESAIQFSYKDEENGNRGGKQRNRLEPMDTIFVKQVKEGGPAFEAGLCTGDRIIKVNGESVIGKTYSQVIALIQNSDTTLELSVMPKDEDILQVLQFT

DLG1_1, Q12959 = biological target: DLG1_1, Q12959
DLG3_2, Q92796 = biological target: T2, DLG3_2, Q92796
T2 sequence (Q92796 221-321, limits assumed, looked up): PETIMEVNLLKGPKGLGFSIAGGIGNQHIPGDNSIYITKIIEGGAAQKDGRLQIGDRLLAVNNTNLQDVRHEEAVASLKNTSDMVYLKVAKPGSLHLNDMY

FRMPD4, Q14CM0 = biological target: FRMPD4, Q14CM0
FRMPD4, Q14CM0, sequence (Q14CM0 67-160): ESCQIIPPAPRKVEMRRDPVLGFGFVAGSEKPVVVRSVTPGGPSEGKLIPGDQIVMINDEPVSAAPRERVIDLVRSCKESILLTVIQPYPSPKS

GRIP1_4, Q9Y3R0 = biological target: T3, GRIP1_4, Q9Y3R0
T3 sequence (Q9Y3R0 467-571, limits assumed, looked up): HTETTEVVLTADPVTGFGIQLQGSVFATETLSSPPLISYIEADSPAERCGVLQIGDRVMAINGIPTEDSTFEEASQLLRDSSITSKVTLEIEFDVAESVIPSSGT

GRIP1_5, Q9Y3R0 = biological target: T4, GRIP1_5, Q9Y3R0
T4 sequence (Q9Y3R0 568-668, limits assumed, looked up): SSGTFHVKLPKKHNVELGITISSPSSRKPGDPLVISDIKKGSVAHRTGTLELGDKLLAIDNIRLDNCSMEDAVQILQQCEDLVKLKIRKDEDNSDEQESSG

GRIP2_5, Q9C0E4 = biological target: GRIP2_5, Q9C0E4
GRIP2_5, Q9C0E4, sequence (Q9C0E4 544-642): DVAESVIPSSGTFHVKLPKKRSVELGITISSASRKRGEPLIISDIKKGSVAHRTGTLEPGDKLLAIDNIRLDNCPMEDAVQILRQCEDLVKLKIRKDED

HTRA3, P83110 = biological target: T5, HTRA3, P83110
T5 sequence (P83110 354-453, limits assumed, looked up): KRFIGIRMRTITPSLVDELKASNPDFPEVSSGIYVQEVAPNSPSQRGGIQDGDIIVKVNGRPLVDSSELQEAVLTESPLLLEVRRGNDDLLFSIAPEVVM

IL16_3, Q14005 = biological target: IL16_3, Q14005
IL16_3, Q14005, sequence (Q14005 1107-1207): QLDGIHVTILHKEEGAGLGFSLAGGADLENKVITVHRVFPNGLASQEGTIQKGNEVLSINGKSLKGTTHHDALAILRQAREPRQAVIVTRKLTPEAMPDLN

IL16_4, Q14005 = biological target: IL16_4, Q14005
IL16_4, Q14005, sequence (Q14005 1229-1329): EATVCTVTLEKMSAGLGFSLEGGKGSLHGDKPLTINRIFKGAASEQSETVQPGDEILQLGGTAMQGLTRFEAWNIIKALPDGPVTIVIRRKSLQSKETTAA

Inadl_2, Q8NI35 = biological target: Inadl_2, Q8NI35
Inadl_2, Q8NI35, sequence (Q8NI35 238-335): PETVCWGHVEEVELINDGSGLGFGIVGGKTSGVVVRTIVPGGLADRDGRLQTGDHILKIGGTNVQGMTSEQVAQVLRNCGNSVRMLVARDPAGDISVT

LAP2, Q96RT1 = biological target: LAP2, Q96RT1
LAP2, Q96RT1, sequence (Q96RT1 other isoform, or with tags, fused parts or gaps): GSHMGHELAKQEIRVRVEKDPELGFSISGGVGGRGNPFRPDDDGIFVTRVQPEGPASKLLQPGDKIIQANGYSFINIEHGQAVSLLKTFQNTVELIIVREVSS

LIN7B, Q9HAP6 = biological target: T6, LIN7B, Q9HAP6
T6 sequence (Q9HAP6 88-185, limits assumed, looked up): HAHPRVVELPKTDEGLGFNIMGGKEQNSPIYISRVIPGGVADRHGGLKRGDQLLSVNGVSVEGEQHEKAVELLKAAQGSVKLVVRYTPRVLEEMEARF

LNX2_2, Q8N448 = biological target: T7, LNX2_2, Q8N448
T7 sequence (Q8N448 334-432, limits assumed, looked up): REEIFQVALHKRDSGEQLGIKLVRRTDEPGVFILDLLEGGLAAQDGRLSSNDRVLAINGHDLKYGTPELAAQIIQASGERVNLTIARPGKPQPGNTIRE

LNX2_3, Q8N448 = biological target: T8, LNX2_3, Q8N448
T8 sequence (Q8N448 463-564, limits assumed, looked up): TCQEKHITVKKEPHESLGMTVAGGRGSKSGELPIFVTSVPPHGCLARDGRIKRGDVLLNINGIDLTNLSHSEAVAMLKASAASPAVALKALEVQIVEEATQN

MAGI2_2, Q86UL8 = biological target: MAGI2_2, Q86UL8
MAGI2_2, Q86UL8, sequence (Q86UL8 410-522): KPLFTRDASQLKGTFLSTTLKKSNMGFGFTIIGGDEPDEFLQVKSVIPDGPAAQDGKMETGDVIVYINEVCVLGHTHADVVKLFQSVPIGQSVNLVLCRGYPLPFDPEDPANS

MAST2, Q6P0Q8 = biological target: MAST2, Q6P0Q8
MAST2, Q6P0Q8, sequence (Q6P0Q8 1099-1202): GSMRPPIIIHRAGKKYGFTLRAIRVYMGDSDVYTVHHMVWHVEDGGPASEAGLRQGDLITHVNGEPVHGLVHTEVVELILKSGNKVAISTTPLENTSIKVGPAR

MPP2, Q14168 = biological target: T9, MPP2, Q14168
T9 sequence (Q14168 180-250, limits assumed, looked up): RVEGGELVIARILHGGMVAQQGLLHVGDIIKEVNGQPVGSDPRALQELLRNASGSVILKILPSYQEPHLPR

NHERF3_1, Q5T2W1 = biological target: T10, NHERF3_1, Q5T2W1
T10 sequence (Q5T2W1 4-100, limits assumed, looked up): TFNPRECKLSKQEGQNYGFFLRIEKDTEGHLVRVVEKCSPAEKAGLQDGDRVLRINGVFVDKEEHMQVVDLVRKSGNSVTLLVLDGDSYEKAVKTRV

NOS1, P29475 = biological target: NOS1, P29475
NOS1, P29475, sequence (P29475 9-101): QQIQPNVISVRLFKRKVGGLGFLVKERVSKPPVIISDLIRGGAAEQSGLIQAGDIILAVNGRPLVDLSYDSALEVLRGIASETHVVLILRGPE

PARD3_3, Q8TEW0 = biological target: PARD3_3, Q8TEW0
PARD3_3, Q8TEW0, sequence (Q8TEW0 582-685): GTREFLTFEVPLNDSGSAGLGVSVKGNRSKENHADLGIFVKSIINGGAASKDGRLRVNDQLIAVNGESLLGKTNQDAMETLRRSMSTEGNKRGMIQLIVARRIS

RADIL, Q96JH8 = biological target: T11, RADIL, Q96JH8
T11 sequence (Q96JH8 971-1071, limits assumed, looked up): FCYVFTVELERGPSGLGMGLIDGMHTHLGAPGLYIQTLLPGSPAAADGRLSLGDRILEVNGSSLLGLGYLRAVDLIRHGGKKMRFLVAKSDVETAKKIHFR

SNX27, Q96L92 = biological target: SNX27, Q96L92
TIAM2, Q8IVF5 = biological target: T12, TIAM2, Q8IVF5
T12 sequence (Q8IVF5 885-986, limits assumed, looked up): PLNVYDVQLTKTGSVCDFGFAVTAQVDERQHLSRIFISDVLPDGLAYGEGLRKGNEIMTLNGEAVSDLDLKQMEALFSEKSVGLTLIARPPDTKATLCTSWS

TJP2_1, Q9UDY2 = biological target: TJP2_1, Q9UDY2
TJP2_1, Q9UDY2, sequence (Q9UDY2 24-128): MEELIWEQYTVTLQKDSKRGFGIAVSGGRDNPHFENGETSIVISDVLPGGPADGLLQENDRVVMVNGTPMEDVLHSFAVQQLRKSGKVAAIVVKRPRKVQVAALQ

| Binder | pKd (ARHGAP21, Q5T5U3) | pKd (DLG1_1, Q12959) | pKd (DLG3_2, Q92796) | pKd (FRMPD4, Q14CM0) | pKd (GRIP1_4, Q9Y3R0) | pKd (GRIP1_5, Q9Y3R0) | pKd (GRIP2_5, Q9C0E4) | pKd (HTRA3, P83110) | pKd (IL16_3, Q14005) | pKd (IL16_4, Q14005) | pKd (Inadl_2, Q8NI35) | pKd (LAP2, Q96RT1) | pKd (LIN7B, Q9HAP6) | pKd (LNX2_2, Q8N448) | pKd (LNX2_3, Q8N448) | pKd (MAGI2_2, Q86UL8) | pKd (MAST2, Q6P0Q8) | pKd (MPP2, Q14168) | pKd (NHERF3_1, Q5T2W1) | pKd (NOS1, P29475) | also measured |
| --- | --- | --- | --- | --- | --- | --- | --- | --- | --- | --- | --- | --- | --- | --- | --- | --- | --- | --- | --- | --- | --- |
| RHGSCVETSL [TMEM151B, Q8IW70] | 4.17 | 4.23 | 4.53 | 4.51 | below the threshold | below the threshold | below the threshold | below the threshold | below the threshold | 3.61 | below the threshold | 3.94 | 4.45 | below the threshold | below the threshold | 3.66 | 5.64 | below the threshold | 5.38 | 3.84 | pKd (PARD3_3, Q8TEW0): 3.59; pKd (RADIL, Q96JH8): below the threshold; pKd (SNX27, Q96L92): 5.55; pKd (TIAM2, Q8IVF5): below the threshold; pKd (TJP2_1, Q9UDY2): below the threshold |
| PKRSFIESNV [TANC1, Q9C0D5] | 3.85 | 4.69 | 4.77 | below the threshold | below the threshold | below the threshold | below the threshold | below the threshold | below the threshold | below the threshold | below the threshold | 5.27 | below the threshold | below the threshold | below the threshold | 4.81 | 5.2 | below the threshold | 4.3 | below the threshold | pKd (PARD3_3, Q8TEW0): below the threshold; pKd (RADIL, Q96JH8): 3.67; pKd (SNX27, Q96L92): 5.51; pKd (TIAM2, Q8IVF5): below the threshold; pKd (TJP2_1, Q9UDY2): below the threshold |
| QSLNRMEYIV [JAG1, P78504] | below the threshold | below the threshold | 4.45 | below the threshold | below the threshold | below the threshold | below the threshold | 3.87 | below the threshold | below the threshold | 4.77 | below the threshold | below the threshold | 5.4 | below the threshold | 3.91 | 4.07 | below the threshold | below the threshold | 3.54 | pKd (PARD3_3, Q8TEW0): 4.37; pKd (RADIL, Q96JH8): 4.82; pKd (SNX27, Q96L92): below the threshold; pKd (TIAM2, Q8IVF5): 4.18; pKd (TJP2_1, Q9UDY2): below the threshold |
| IPLDGETEEL [MYOZ1, Q9NP98] | below the threshold | below the threshold | below the threshold | 4.03 | below the threshold | below the threshold | below the threshold | below the threshold | below the threshold | below the threshold | below the threshold | below the threshold | below the threshold | below the threshold | below the threshold | below the threshold | 4.41 | below the threshold | 3.48 | below the threshold | pKd (PARD3_3, Q8TEW0): 3.97; pKd (RADIL, Q96JH8): below the threshold; pKd (SNX27, Q96L92): 3.69; pKd (TIAM2, Q8IVF5): below the threshold; pKd (TJP2_1, Q9UDY2): below the threshold |
| QMNQTLPVQV [EPHB3, P54753] | 4 | below the threshold | below the threshold | below the threshold | below the threshold | below the threshold | below the threshold | below the threshold | below the threshold | 3.77 | below the threshold | below the threshold | below the threshold | 5.12 | below the threshold | below the threshold | 4.1 | below the threshold | 3.48 | 4.18 | pKd (PARD3_3, Q8TEW0): 3.51; pKd (RADIL, Q96JH8): 4.44; pKd (SNX27, Q96L92): 3.86; pKd (TIAM2, Q8IVF5): below the threshold; pKd (TJP2_1, Q9UDY2): below the threshold |
| DDEDRLVIEI [ZNF831, Q5JPB2] | below the threshold | below the threshold | 4 | below the threshold | below the threshold | below the threshold | below the threshold | 4 | below the threshold | 3.77 | 3.57 | below the threshold | 3.56 | 4.76 | below the threshold | below the threshold | 4.08 | below the threshold | below the threshold | 3.64 | pKd (PARD3_3, Q8TEW0): 4.98; pKd (RADIL, Q96JH8): 4.02; pKd (SNX27, Q96L92): below the threshold; pKd (TIAM2, Q8IVF5): 3.9; pKd (TJP2_1, Q9UDY2): below the threshold |
